Results from PMC11459484.

Target: Selenomonas sp. HNH-Cascade Cas7 (Cas7f1) (Selenomonas sp.)
Assay: cryo-EM structure; SsCascade RNP (Cas5/6/7/8 and processed crRNA) co-expressed in E. coli, purified by Ni-NTA and gel filtration, mixed with target DNA at ambient temperature for 5 minutes; Map A 3.48 Å, Map B 3.28 Å

- stoichiometry N: 6
Substance: Selenomonas sp. HNH-Cascade Cas7 (Cas7f1) (natural protein)
